Results from the DeepSol protein solubility set.

Test: soluble on expression in E. coli; label from the status in PepcDB or PDB records

| Sequence | soluble on expression in E. coli |
| --- | --- |
| MGSDKIHHHHHHMCNYNQLFENIAELVMHHSPSGAEAEINQLLLQKFAALGVEVWSDRADNIIAKIPGKNSERAVAITAHKDEIGAIVKNIGDAGKVEVRKLGGAYPWVYGEGVVDLLGDNETISGILSFGSRHVSHESPQKVQQEDTAVKWENAWIETKRTTEELEIAGIRPGTRMVIGKHRKHPVKLQDHIASYTLDNKASVAILLALAQQLKQPAMDVYLVASAKEEVGAIGALFFTQNQQLDALIALEICPLSEEYPVKDSENPVLLIQDAYGIYDEGLNGELRQCAKQLNMPVQLTTLSGFGSDASIAMKFGHVGRAACLAFPTQNTHGYEIAHLGAISNCINLLKAFCETEF | not soluble |
| MGSDKIHHHHHHMCRLSLLKSSHLFKEQLLAASYSIQCVSQIAILGAPLWNALMAGANRQDQNGPANPFCRYEYLHALELSGCVGEQTGWRPMHLVVSEAGQIGENNQASAQGGDRQIDPSKVLAVMPLYLKGHSYGEYVFDWAWAQAYERHGLEYYPKLVNAIPFTPVTGSRIGFRVDLSEAQKAGLIGKIGEHLDLLTKACSASSWHSLFLLESERQPLVSKGHLQRLGTQFHWFNRDYQSFDDFLSRLTSRRRKSILKERRAITKAGLKFHFIDGAEITEDELTHFVHCYQRTYYKRSGHQGYLNAAFFSAVVKNMADKVRLLMVERPQANKLEAQAGSDARSEVGSAQEIEPIAAALYFVGGDCLYGRYWGALEEIEGLHFETCYYQGIDYAIAQRLKKFDAGAQGEHKVLRGFEPIPTYSIHEILHGDFRRAIADFIEQEARAVKIYMNELEAILPFKREGD | not soluble |
| MGSDKIHHHHHHMDDGTRLGQADHAAGPRPPGVIFTMRYPSDVGFVWKTIALHRDLIARAFGGEARCILAYPQLSPTSAYQPRWSTAIQADFYDYSAENRQRLERVITDEAIRLVVFMSAQPADVDLGFLRGLGLRTVTSENNSYDHSLRQPFMKRLAKALIRRVLKRQVFDLHIANSQAQYDFLRGFAQLPASRLRAVRNGVDTDHFQPGERTGACSTLGLDPDRLWIMAASQARPEKRLERVLEVIRAVKDARPALPIGFFFVGEGENLAEWRQIALGLPDAETYRFFGRQNDLRPYYQAASVFIHGAFRESFGLVIAEAMASGLPVVATHAHGPAEIIAEGETGRLVGRDDWEGLGKAVIEYLDDAELRRTHGLAGRARCVALFSITRQAQEFADLLRPFLKDGAGAPY | not soluble |
| MGSDKIHHHHHHMDEALAHANGETPAVGDYMTRDVATVSADDTVSDVAARISESDHNGFPVTDGRHVEGFVSARDLLLADPDELLFKVMTEDLVVAHPEMDVTDAARVILRSGIQKLPVVDDAGNLVGIITNADVIRSQIERATPEKVGKLMRTLETIHGVSITEERRTVTISDVVPTQGKVYADELEGRRYELENGLAEPLVVIDNGSTGDDGSLLLADGHHRVMAAERAGVAEMDAYVIVLERAVDLGMARTARTEGLDSIADIDVVDYARHPLVETIERLQ | not soluble |
| MGSDKIHHHHHHMDEQQQLANAYHSNKLSHAYLFEGDDAQTMKRVAIHFTKLILCNNSNQCELKVDTFNHPDFSYVSSDENTIKKEQIEQLVHHMNQLPIEGQYKVYIIEDFEKLTVQGENSILKFLEEPPDNTIAILLSTKPEQILDTIHSRCQHVYFKPIDKRQFIERLVEMSIARPVAEMLSTYTTQIEAASSLNEEFDLVTLRKSIIRWCQLILSNKAMALIGVIELLKQAKNRKLQLLTLSAVNGFFEDIMHAKIEMDNYYTFSDLTEEIENYANQLTFNQLILMYDQITEAHKKLNQNVNPTLVFEQIVIKGVI | not soluble |
| MGSDKIHHHHHHMDGTRERPMRKIIAATFVSLDGVMQAPGGPEEDPVGGFKFGGWTFHYFDEVGGAAMDELFSKPFTLLLGRRTYDIFTAYWPYQKDPIADAFNPATKYVATHRPDTLTWQNTQWLGEDIVAALRRLSKQDGPDLLIQRSADLIQTLLANGLIDEIRLMIFPLLLGKGKRLFGDGAMPAAFKLVKSQTSSTGVIIATYERSGEIEVGSFVMGEPSVAELERRRNWK | not soluble |
| MGSDKIHHHHHHMDHEQIESQPWPQEGLERVERCPICGEVDRALLHDGLTDKIFFCAPGRWSLYQCPTCGAAYLDPRPTPATIAMAYSDYYTHEEGDDAPKGRFAHLKRRLRNDYLNARYNADLQPAWKVGRWITPLLGRKRKQIDESVRHLPATGKPGVLVDIGCGNGQFLGVAMQLGWEAWGVDLDPKAVKTAQKTGATVIQGGFPDTGLPSAHFDIVTLSHVIEHVHDPLAALREAFRVLKPGGHLWLATPNMGSFGHVRFGADWRGLEPPRHLVLFNNNSLEIALDGAGFIDIKQKPCLAQAAWFYQSSLRISRCQDPYDASASGLPLTLWIAAKLVDFRVAVSPFRCESIVVTAKRPESD | not soluble |
| MGSDKIHHHHHHMDIELREKIAGEITLSDSPAETIRKWREEFKVSQLELSNFLNQSPSVISDYETGRRKFPSIASVRKIVDALITIDERRGGYVIKKYKSGVPSDALIDIKDYDRDVPLEKAIRAMNGKNVSHVSVERNIRGYTIVDGVKAILAFSYYEYSKLYGWSSERAIFFTDVKFGRSPMIAIRVHPLKPAAVVYIQPDNVDDLAIKLADIENIPLLITEMSPEAVSHVMSQLR | not soluble |
| MGSDKIHHHHHHMDIIEELRAYREKDIPYSRVLSSMCTVPHPVAVEAHRMFIETNLGDPGIFRGTVELEAKLMRLIGDILHCETPAGYICSGGTEANIQGIRAARNVQKKENPNIVIPKTAHFSFEKIGDILGVKIKRAGVDEEYKVDVGQVEDLMDENTVAIVGIAGTTELGQIDPIVELSKLAEERQVELHVDAAFGGLVIPFMDNPYPFDFQNRGVSSITIDPHKMGMATIPAGGIIFRNESYLRALEVETPYLTSKTQFTLTGTRPGTGVASAYAVLKSLGFEGMREVVKNCLKNTRILVEEMRDLGFEPVIEPVMNVVSFRTDEAERIKEELYRMRWVISTIREPKAIRFVVMPHVTEEVIKNFISDFRKVLRR | not soluble |
| MGSDKIHHHHHHMDIKQLKFLIALDQTRHFGQAAALCHITQPTLSMRLRNLEDELDLVLVKRGQRFEGFTEAGERILAWARTLLAAHDGLQAEAASCRGQVVGSLRLGTVPLASFNPMHLLLPLREKYPELHFQLSSLSSEQVIDGLSRNQLDLGICYLDQVNTSFFEVIELGTTTMGLLHDTRHFQFTSDRLRWDELGDIPLGLLSKGMHYRQSLDLSFRSRGLEPNAVLESDSSFQLIQAINTGICCAIMPLDCGLEDLSEHLRIVPVADAAIHSPVGLLLRRSEPRSAIAEQCFAEARGLFQAS | not soluble |
| MGSDKIHHHHHHMDIQNMPREQLGVCAEGNLHSVYLMFNANDNVESQLRPCIANVAQYIYELTDQYSDSAFNGFVAIGANYWDSLYPESRPEMLKPFPAMQEGNREAPAIEYDLFVHLRCDRYDILHLVANEISQMFEDLVELVEEERGFRFMDSRDLTGFVDGTENPKGRHRQEVALVGSEDPEFKGGSYIHVQKYAHNLSKWHRLPLKKQEDIIGRTKQDNIEYESEDKPLTSHIKRVNLKDENGKSIEILRQSMPYGSLKEQGLMFISTCRTPDHFEKMLHSMVFGDGAGNHDHLMHFTSALTGSSFFAPSLDFLMQFDN | not soluble |
| MGSDKIHHHHHHMDKLQRISEAIKSKKKLVVMFSGGVDSTLLAKLAREVLGKNAVALTIDSPVIPRKEIEEAKNLANLIGIRHEFIELNELKSRHLIENPPDRCYLCRKLRDNIVKNWARENGFDVIADGLNFSDLQDYRPGVKASTEDGIWHPFIDFEVTKEEIREYSKKLGLPTWDKPAMACLCSRFPYGFGLNEERVRMVEKAENFLRELGFREVRVRFFPYKTAVVEVGRDEMELLMGKRTDIVLALQKIGFSFVTLDLEGFASGKLNRTIEGMSK | not soluble |
| MGSDKIHHHHHHMDNLIIKPGYVTQFQCVGPECEDSCCYDWRISFDKKSYKNTIKHPLLATTAKSAFIETKKSTSDWADIRLNEQGACPFVNEHKLCDIHAKAGEQALSHTCKTYPRIHKVIGGNKYESLYLSCPEVTRLVLFNPNAFQFDSNISGIKQPSTPSPIWLEKTHEYSLDLLVNLGLDWEQVLLAIGLLIKVSDQVRQNILPIEELDKRLQQLKLYAQSGALAEQYKNLPYSPLPQMHAFIAVHNELCKTHSRGVRERFTSLNQAVAALCNEENNYQIDALNQAWAEHAVPALISHTDLFERYILYSIYHHHFPLIDSQQLSWEAFRLLVLDCFMIRSYLSAIAFKNKGLSESDIVMCFQLYQVVRQHKIEFTQSMSKTLEECGIDSVPAAICLLKTNI | not soluble |
| MGSDKIHHHHHHMDPRRRLVPDIITLQAFECAARHGNFTRAAEELNLTQSAVSRQIGELEAQTGMQLFERIRRRVVLSEAGRKFLPDVRRLLQQSEQLMVRAVSAGTSHASLSVATLPTFGSRWLMPRLSRFIDANPDMTITIGSRSHPFDFDEEGFDLAIHYGQPIWAHGTCTFLCNEVIVPVASPALLRRAGVNRAQDLAGQPLLHVTTRPKLWTEWLEMNGVTADNAYQGSRFDQFSMIIEAAASGIGFALLPRYLIEAELASSRLEIVFDIPLQTDKSYYVALPEGRQDNVLARAFQAWLLDQVGKPV | not soluble |
| MGSDKIHHHHHHMDVTSTLSLGDPLEPARKATADMLRSRDHSFSLPQPFYCDQRLFEIDMQEIFHKEWLIAGMTCEIPAKGNFLTLQIGKNPVLVIRGAEGQVHAFHNVCRHRGSRLCVSEKGKVAKLVCPYHQWTYELDGRLLFAGTEMGADFDMKEYGLKPIQVKTAGGYIFISLAENPPAIDDFLATLEHYMEPYDMENAKVAVQTTIREAANWKLVIENNRECYHCNGSHPELLKTLLEWDDVTDPRASQAFKDQVAACTSAWDAEKIPYAHASFGLRNRIVRMPLLDGTVSMTMDGKQGSKKLMGRIKNPDLGSMRILHLPHSWNHCMGDHLIVFTVWPISAQETLVTTKWLVHKDAVEGVDYDVARLREVWDATNDQDRRLAEENQRGINSDAYQPGPYSKTYEFGVINFLDWYSERMLNNLGEESAHVRKVAGS | not soluble |
| MGSDKIHHHHHHMDYYAGIDVSLELSSVCIVNQDGKIFREVKVASDPEALIGLFGGLGVALSRIGLEAGPLSQWLHAGLTAGGYDVVLLETRHVKAGLSAMTVKTDRKDARGIAHLLRMGWFRPVHCKTNSAQEIRVLLVGRKLLQSKMGDLEQGIRGLLRGFGLKVGVISKGRFAARIRELVAGQAMLETVAEPMLRARDALRAEFTLLHRQILAIVRKDDLCRRLMTVPGVGPLVALTFKSGIDDPSRFTSSKTVGAHFGLTPKKYQSGETDITGGITRTGDAMVRMALYEAAQVLLTRSQRFSSLKRWALEVAKRRGMKRAKVALARKLATVLHRMWIDGSDFRWGKEITSA | not soluble |
| MGSDKIHHHHHHMEELLERVFSFSDVDKLIDFISYELQKPVILESADFFLLAYNSYYINHFDSANQQTIFSKKCPVQIFERFLKDGIIEKLKTEPEPFRVNKIESIGLNQRVVVSAKHKGEVMGYIWIQELDQNLTDEELDFLYETSFHVGKIIYKTNKLKQEKEEKAEDLIKRAIYQQFTSEKELRREAERINTVLPSMFSVVILHAANGDGEAVEDLKENIRSYLNLRDKVSHVLTIESNIVIVVASFSQKSSVSSAASEFINKLLTHFHFQKIPTPIYIGIGNEYNHLLKLGKSYTEALEVIKAAEITGNQENIPYEYAKLGIYRYLESIEQKNEFLEYENKDLALLKAKDEESSTELLKTLEVYLLNNCKTKPAAEQLFIHQNTLNYRIKQITEMTSIDLSDFRTRCQLYLDLMLMKKK | not soluble |
